Where a chain is given by its changes, count along the chain named. Where two headings read alike, the source gives them in different places. One block for each binder: values may come before it.
Legend:
MAdCAM-IgG1 Fc fusion [1] = target: MAdCAM-IgG1 Fc fusion (human); assay: SPR, protocol 2
MAdCAM-IgG1 Fc fusion [2] = target: MAdCAM-IgG1 Fc fusion (human); assay: competition, JY cell adhesion
mouse MAdCAM = target: T1, mouse MAdCAM (mouse, UniProt Q61826); assay: ELISA
T1 chain: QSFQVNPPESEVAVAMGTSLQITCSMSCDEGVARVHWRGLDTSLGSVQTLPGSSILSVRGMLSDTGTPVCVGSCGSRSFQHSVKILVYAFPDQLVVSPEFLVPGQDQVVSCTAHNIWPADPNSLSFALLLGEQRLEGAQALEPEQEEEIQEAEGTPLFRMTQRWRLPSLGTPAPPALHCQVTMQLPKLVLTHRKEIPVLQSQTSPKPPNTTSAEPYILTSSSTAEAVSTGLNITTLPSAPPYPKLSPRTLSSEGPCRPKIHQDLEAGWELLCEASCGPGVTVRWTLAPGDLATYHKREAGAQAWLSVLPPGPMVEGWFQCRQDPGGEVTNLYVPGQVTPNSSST

[3] = target: T2, cynomolgus/human MAdCAM chimera (on CHO cells) (cynomolgus/human); assay: competition, JY cell adhesion to CHO
T2 chain: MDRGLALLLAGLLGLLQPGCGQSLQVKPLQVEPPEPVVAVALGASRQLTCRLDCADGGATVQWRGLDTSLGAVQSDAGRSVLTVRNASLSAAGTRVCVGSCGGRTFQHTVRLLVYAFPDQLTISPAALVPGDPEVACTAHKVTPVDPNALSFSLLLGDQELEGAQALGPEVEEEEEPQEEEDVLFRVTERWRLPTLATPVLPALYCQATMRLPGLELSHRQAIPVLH

[4] = target: T3, human MAdCAM (on CHO cells) (human, UniProt Q13477); assay: competition, JY cell adhesion to CHO
T3 chain: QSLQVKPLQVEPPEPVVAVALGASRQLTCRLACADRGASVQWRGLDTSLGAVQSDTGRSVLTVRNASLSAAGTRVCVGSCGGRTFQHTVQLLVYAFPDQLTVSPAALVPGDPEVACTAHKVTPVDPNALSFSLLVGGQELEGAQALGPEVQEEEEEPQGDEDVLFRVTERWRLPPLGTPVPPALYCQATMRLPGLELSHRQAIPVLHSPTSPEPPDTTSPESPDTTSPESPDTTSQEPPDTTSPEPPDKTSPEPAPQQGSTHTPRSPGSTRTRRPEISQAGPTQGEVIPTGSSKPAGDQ

MAdCAM-IgG1 Fc fusion [5] = target: MAdCAM-IgG1 Fc fusion (human); assay: SPR, protocol 1
[6] = target: T2, cynomolgus/human MAdCAM chimera (on CHO …); assay: FACS
MAdCAM-IgG1 Fc fusion [7] = target: MAdCAM-IgG1 Fc fusion (human); assay: competition, JY cell adhesion; remark: listed apart in the source

Chain of MAdCAM-IgG1 Fc fusion (human) (chain, as listed by the source): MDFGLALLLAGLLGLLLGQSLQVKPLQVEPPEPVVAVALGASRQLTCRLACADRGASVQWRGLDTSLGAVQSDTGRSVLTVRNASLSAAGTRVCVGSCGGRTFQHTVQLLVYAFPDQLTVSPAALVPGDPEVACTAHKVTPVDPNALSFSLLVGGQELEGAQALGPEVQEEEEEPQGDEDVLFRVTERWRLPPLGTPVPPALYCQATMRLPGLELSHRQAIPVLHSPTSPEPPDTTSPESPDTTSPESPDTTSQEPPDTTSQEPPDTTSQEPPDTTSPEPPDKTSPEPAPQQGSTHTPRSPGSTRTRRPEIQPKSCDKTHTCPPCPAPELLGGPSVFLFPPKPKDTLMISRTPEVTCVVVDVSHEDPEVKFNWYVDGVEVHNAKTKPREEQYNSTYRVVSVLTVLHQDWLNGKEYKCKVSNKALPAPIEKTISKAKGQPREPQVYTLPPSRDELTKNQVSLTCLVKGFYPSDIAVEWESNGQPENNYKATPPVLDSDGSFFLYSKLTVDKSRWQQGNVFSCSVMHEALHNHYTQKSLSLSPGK

B1: 6.14.2 (antibody, V domains shown)
VH: EVQLLESGGGLVQPGGSLRLSCAASGLTFNNSAMTWVRQAPGKGLEWVSTTSGSGGTTYYADSVKGRFTISRDSPKNTLYLQMNSLRAEDTAVYYCAARGYSYGTTPYEYWGQGTLVTVSS
VL: MDMRVPAQLLGLLLLWLRGARCDIQMTQSPSSLSASVGDRVTITCRASRSISSYLNWYQQKPGKAPKVLIFFVSSLQSGVPSRFSGSGSGTDFTLTISSLQPEDFATYYCQQNYIPPITFGQGTRLEIRR
Kd (MAdCAM-IgG1 Fc fusion [1]): < 0.01 nM
IC50 (MAdCAM-IgG1 Fc fusion [2]): 0.011 µg/mL
binding result (mouse MAdCAM): no binding
IC50 [3]: 0.53 µg/mL
IC50 [4]: 0.291 µg/mL
Kd (MAdCAM-IgG1 Fc fusion [5]): 0.0077 nM

B3: 1.8.2 (antibody, V domains shown)
VH: EVQLVESGGGLVKPGGSLRLSCVVSGFTFTNAWMIWVRQAPGKGLEWVGRIKRKTDGGTTDYAAPVKGRFTISRDDSKNTLYLQMNSLKTEDTAVYYCTTGGVAEDYWGQGTLVTVSS
VL: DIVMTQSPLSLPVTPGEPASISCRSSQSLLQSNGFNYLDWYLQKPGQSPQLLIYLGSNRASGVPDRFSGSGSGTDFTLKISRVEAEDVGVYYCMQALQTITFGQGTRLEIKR
IC50 (MAdCAM-IgG1 Fc fusion [2]): 0.027 µg/mL
IC50 [4]: 0.424 µg/mL
Kd (MAdCAM-IgG1 Fc fusion [5]): 0.035 nM

B4: 1.7.2 (antibody, V domains shown)
VH: B3 VH with V24A
VL: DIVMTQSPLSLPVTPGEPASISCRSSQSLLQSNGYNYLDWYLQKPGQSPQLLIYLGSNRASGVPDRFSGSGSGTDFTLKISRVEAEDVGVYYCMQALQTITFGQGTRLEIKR
IC50 (MAdCAM-IgG1 Fc fusion [2]): 0.03 µg/mL
IC50 [4]: 0.502 µg/mL
Kd (MAdCAM-IgG1 Fc fusion [5]): 0.042 nM

B5: 6.34.2 (antibody, V domains shown)
VH: QVQLVESGGGVVQPGRSLRLSCAASGFTFSSYGMHWVRQAPGKGLEWVAVISNDGNNKYYADSVKGRFTISRDNSKNTLYLQMNSLSAEDTAVYYCARDSTAITYYYYGMDVWGQGTTVTVSS
VL: MDMRVPAQLLGLLLLWLRGARCDIQMTQSPSSLSASVGDRVTITCRASQNISSYLNWFQQKPGKAPKLLIYAASGLKRGVPSRFSGSGSGTDFTLTIRTLQPDDFATYSCHQSYSLPFTFGPGTKVDIKR
Kd (MAdCAM-IgG1 Fc fusion [1]): < 0.015 nM
IC50 (MAdCAM-IgG1 Fc fusion [7]): 0.013 µg/mL
IC50 (MAdCAM-IgG1 Fc fusion [2]): 0.013 µg/mL
binding result (mouse MAdCAM): no binding
IC50 [3]: 0.47 µg/mL
IC50 [4]: 0.285 µg/mL
Kd (MAdCAM-IgG1 Fc fusion [5]): 0.0158 nM

B6: 6.34.2-mod (antibody, V domains shown)
VH: B5 VH with S87R
VL: B5 VL with N50S, F58Y, R98S, T99S, D103E, S109Y
IC50 (MAdCAM-IgG1 Fc fusion [7]): 0.049 µg/mL

B9: 6.67.1 (antibody, V domains shown)
VH: QVQLQESGPGLVKPSETLSLTCTVSGDSISSNYWSWIRQPAGKGLEWIGRIYTSGGTNSNPSLRGRVTILADTSKNQFSLKLSSVTAADTAVYYCARDRITIIRGLIPSFFDYWGQGTLVTVSS
VL: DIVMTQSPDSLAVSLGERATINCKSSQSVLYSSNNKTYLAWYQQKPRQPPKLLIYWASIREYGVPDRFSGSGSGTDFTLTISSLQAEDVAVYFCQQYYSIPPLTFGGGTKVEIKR
IC50 [3]: 0.75 µg/mL
IC50 [4]: 0.298 µg/mL

B13: 6.22.2 (antibody, V domains shown)
VH: QVQLVESGGGVVQPGRSLRLSCAASGHTFSSDGMHWVRQAPGKGLEWVAIIWYDGSNKYYADSVKGRFTISRDNSKNTLYLQMNSLRAEDTAVYYCARDPGYYYGMDVWGQGTTVTVSS
VL: EIVLTQSPDFQSVTPKEKVTITCRASQRIGSSLHWYQQKPDQSPKLLIKYASQSFSGVPSRFSGSGSGTNFTLTINGLEAEDAATYYCHQSGRLPLTFGGGTKVEIKR
IC50 [3]: 0.83 µg/mL
IC50 [4]: 0.573 µg/mL

The next lines start with the values.

IC50 (MAdCAM-IgG1 Fc fusion [2]): 0.02 µg/mL
binding result (mouse MAdCAM): no binding
IC50 [4]: 0.369 µg/mL
Kd (MAdCAM-IgG1 Fc fusion [5]): 0.093 nM
binding result [6]: no binding
B2: 6.73.2 (antibody, V domains shown)
VH: EVQLLESGGDLVQPGGSLRLSCAASGFTFRSYAMNWVRQAPGKGLEWVSVISGRGGTTYYADSVKGRFTISRDNSKNTLYLQMNSLRAEDAAVYYCAKIAVAGEGLYYYYGMDVWGQGTTVTVSS
VL: MDMRVPAQLLGLLLLWLRGARCDIQMTQSPSSLSASVGDRVTFTCRASQNITNYLNWYQQKPGKAPKLLIYAASSLPRGVPSRFRGSGSGTDFTLTISSLQPEDFATYYCQQSYSNPPECGFGQGTTLDIKR

IC50 [3]: 0.62 µg/mL
IC50 [4]: 0.387 µg/mL
B7: 7.20.5 (antibody, V domains shown)
VH: QVQLQESGPGLVKPSETLSLTCTVSGSSISSYHWNWIRQPAGKGLEWIGRIYTSGSTNYNPSLKSRVTMSLDTSKNQFSLKLSSVTAADTAVYYCAREGVRYYYASGSYYYGLDVWGQGTTVTVSS
VL: not shown

Kd (MAdCAM-IgG1 Fc fusion [1]): 0.0325 nM
IC50 (MAdCAM-IgG1 Fc fusion [2]): 0.02 µg/mL
binding result (mouse MAdCAM): no binding
IC50 [3]: 0.83 µg/mL
IC50 [4]: 0.44 µg/mL
Kd (MAdCAM-IgG1 Fc fusion [5]): 0.1 nM
B8: 9.8.2 (antibody, V domains shown)
VH: QVQLVESGGGVVQPGRSLRLSCAASGFTFSSYGMHWVRQAPGKGLEWVAVIWYDGSNEYYADSVKGRFTISRDNSKNTLYLQMNSLRAEDTAVYYCARGAYHFAYWGQGTLVTVSS
VL: DMRVPAQLLGLLLLWLSVAGARCDIQMTQSPSSLSASVGDRVTITCQASQDISNYLNWYQQKPGKAPKLLIYDASNLETGVPSRFSGSGSGTDFTFTISSLQPEDIATYSCQHSDNLSITFGQGTRLEIKR

IC50 [3]: 0.96 µg/mL
IC50 [4]: 0.574 µg/mL
B10: 7.26.4 (antibody, V domains shown)
VH: QVQLVQSGAEVKKPGASVKVSCEASGYTFTSYGIDWVRQAPGQGLEWMGWISVYSGNTNYAQKLQGRVTMSTDTSTSTAYMELRSLRSDDTAVYYCAREGSSSSGDYYYGMDVWGQGTTVTVSS
VL: DIVMTQTPLSLSVTPGQPASISCKSNQSLLYSDGKTYLFWYLQKPGQPPQLLIYEVSNRFSGVPDRFSGSGSGTDFTLKISRVEAEDVGVYYCMQSIQLPWTFGQGTKVEIKR

IC50 [3]: 0.64 µg/mL
IC50 [4]: 0.52 µg/mL
Kd (MAdCAM-IgG1 Fc fusion [5]): 0.0067 nM
B11: 6.77.1 (antibody, V domains shown)
VH: EVQLVESGGGLVKPGGSLRLSCAASGFTFSSYSMNWVRQAPGKGLEWVSSISSSSSYIYYADSVKGRFTISRDNAKNSLYLQMNSLRAEDTAVYYCARDGYSSGWSYYYYYGMDVWGQGTTVTVSS
VL: B10 VL with K24N, N26S, Y31L, F39N, Y92S, P100M, W101C, T102S, V109L

Kd (MAdCAM-IgG1 Fc fusion [1]): 0.0048 nM
IC50 (MAdCAM-IgG1 Fc fusion [2]): 0.019 µg/mL
IC50 [3]: 0.72 µg/mL
Kd (MAdCAM-IgG1 Fc fusion [5]): 0.0015 nM
B12: 7.16.6 (antibody, V domains shown)
VH: B10 VH with E23K, D35N, L64V, S71T, T72A, E82D
VL: B10 VL with N26S, Y31H, S32T, K35T, F39Y, V90I, S96N

— patent US20050232917 (published 2005)
